± gives the standard deviation of the averaged measurements.
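Also: PSI is a weighted mean of sequencing reads over stability bins, variants kept only with over 10 reads, mCherry proximal and sfGFP distal, peptide attached via GGGS linker.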

The test system of the data set is Saccharomyces cerevisiae. In words: protein stability index of tFT-peptide fusion (C-terminal peptide) (PSI (0-1 scale)); higher = more stable (slower turnover). As to conditions: genetic background: wild type; temperature: 30 C. The method, then:
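Multiplexed protein stability (MPS) profiling in S. cerevisiae. Random 12-aa peptides (tFT-X12 library) are fused to the C-terminus of a sfGFP-mCherry tandem fluorescent timer, after mCherry and a GGGS linker. Cells are FACS-sorted into 8 mCherry/sfGFP bins and deep-sequenced. The protein stability index (PSI) is the read-weighted bin average, scaled from 0 (unstable) to 1 (stable). Only peptides with >10 reads are reported; cells were grown at 30 °C in SC-His with glucose.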
Take GVGYCCVSGGLG: the protein stability index stood at 0.722 ± 0.011.

For the sequence GVIGPFSHDGCA, the protein stability index amounted to 0.662 ± 0.021.

GVILPVVKARLA registered a protein stability index of 0.472 ± 0.042. Under GVLGLDLSVVGG stands 0.716 ± 0.035; under GVLGSIQLFLGI, 0.699 ± 0.0091.

GVLPWQYSSFLS came in with a protein stability index of 0.694 ± 0.058.

Consider GVLRGNRITECF, for which the protein stability index stood at 0.716 ± 0.049. As to GVLVAFLWGESV, the protein stability index amounted to 0.593 ± 0.018. GVRDGGTRGSEG displayed a protein stability index of 0.7012 ± 0.0055. Consider GVRGGWVVNRGV, for which the protein stability index worked out at 0.732 ± 0.026.

With GVRLSPTACSSI, the protein stability index turned out to be 0.678 ± 0.071. GVRRAAFAKYGG had a protein stability index of 0.655 ± 0.0071.

GVRRSQSCPVRS: the protein stability index came out at 0.7065 ± 0.0051. In the case of GVRYFKWGCTHG, the protein stability index was determined as 0.684 ± 0.029. GVSAPGDAGAVP had a protein stability index of 0.654 ± 0.015. In the case of GVSCGWVAHARW, the protein stability index was 0.694 ± 0.061. The result for GVSSGVSFVLGH reads 0.702 ± 0.0083; that for GVSVGGSSGGSG, 0.6868 ± 0.0048. As for GVSVSSSFLNGC, the protein stability index was determined as 0.669 ± 0.019. GVTGGWVVNRGV returned a protein stability index of 0.7054 ± 0.007. Turning to GVTGRGVSRVYG, the protein stability index stood at 0.671 ± 0.013. As for GVTLKSPTGRVF, the protein stability index worked out at 0.666 ± 0.097.

Regarding GVVGGVGGFFGC, the protein stability index came to 0.754 ± 0.0013. GVVGLEVLGRWG gave a protein stability index of 0.687 ± 0.047.

With GVVMMGERGGER, the protein stability index amounted to 0.685 ± 0.049. Sequence GVWREVGNIEEV displayed a protein stability index of 0.701 ± 0.0099. Sequence GVWWRRVVFGRR showed a protein stability index of 0.696 ± 0.075. Take GWCTLASGLFTT: the protein stability index stood at 0.673 ± 0.1. Under GWGGVWGRVWWR stands 0.563 ± 0.05.

Regarding GWGKWGVGIGRG, the protein stability index was determined as 0.694 ± 0.032. The sequence GWIAEFGLAGGP returned a protein stability index of 0.661 ± 0.0089. GWLGPGCVGRMQ registered a protein stability index of 0.733 ± 0.068. The result for GWPLWGAVRGFW reads 0.71 ± 0.035; that for GWPVGSLKTPCR, 0.726 ± 0.046. Sequence GWRFGKVCGLGG registered a protein stability index of 0.726 ± 0.07.

GWSTKSTYHKPT: the protein stability index worked out at 0.732 ± 0.025. Under GYFSTFIKSSML stands 0.715 ± 0.029. Sequence GYKLLIEGNWEV showed a protein stability index of 0.756 ± 0.025. GYRRTGGLHGVV gave a protein stability index of 0.716 ± 0.034. In turn, GYRSLADSIDLL came in with a protein stability index of 0.7244 ± 0.0066. GYRSSWRALRVG came in with a protein stability index of 0.564 ± 0.076. Regarding GYTDPYPAAAPS, the protein stability index was found to be 0.639 ± 0.056. The sequence GYVHPSWLWANT had a protein stability index of 0.732 ± 0.033. For GYVVVGGGGWLG, the protein stability index amounted to 0.6754 ± 0.0025.

GYYPVALDYKLR: the protein stability index stood at 0.708 ± 0.05. For the sequence HCFASLITSIVH, the protein stability index stood at 0.535 ± 0.025. HCSVSGLQLFMD yielded a protein stability index of 0.699 ± 0.019. As to HCYKRGSCTSLI, the protein stability index is 0.631 ± 0.087. Sequence HDPRVGDNAHFV returned a protein stability index of 0.641 ± 0.099.

HFFSFLACFVDL: the protein stability index was found to be 0.632 ± 0.054. HFLPFSLLLFPP showed a protein stability index of 0.755 ± 0.14. Sequence HFPLRIYSPNGP displayed a protein stability index of 0.697 ± 0.095. As for HFPLSLSPPPPP, the protein stability index was 0.721 ± 0.032. The result for HFQASRLLCEGD reads 0.638 ± 0.026. The result for HFVAALVLLTLD reads 0.72 ± 0.17; that for HFVAPLSPRGSL, 0.633 ± 0.038; that for HGAPLPTSAPKH, 0.7271 ± 0.0031.

HGTAQGVRRQGV displayed a protein stability index of 0.711 ± 0.16. HGWACSRSPCAV displayed a protein stability index of 0.756 ± 0.048. Turning to HHAHRLPTLATS, the protein stability index amounted to 0.693 ± 0.074. For the sequence HHAKWAHGTPAQ, the protein stability index is 0.681 ± 0.022. HHSLLLPPPPPP came in with a protein stability index of 0.673 ± 0.019. Turning to HILDDHVRISNA, the protein stability index worked out at 0.685 ± 0.0096. HIPHSKPRTSLP: the protein stability index was determined as 0.734 ± 0.048.

The values above are taken from the supplement of paper PMC10724198.
